# Test results: paper PMC6985287, “Novel Immunomodulatory Proteins Generated via Directed Evolution of Variant IgSF Domains” (Frontiers in Immunology, 2019)
# T1: wild type human ICOSL-Fc fusion protein (human, UniProt O75144 19-256)
# T1 construct: ICOS ligand (ICOSL), human, extracellular domain (ECD); secreted with the human immunoglobulin VH5-51 signal peptide; Fc dimer; also called WT ICOSL; WT ICOSL-Fc; source: Expi293F, transient expression, purified (Protein A, SEC); not shown: Fc (IgG1, lacking effector function), C-terminal, kept
# T1 sequence (looked up): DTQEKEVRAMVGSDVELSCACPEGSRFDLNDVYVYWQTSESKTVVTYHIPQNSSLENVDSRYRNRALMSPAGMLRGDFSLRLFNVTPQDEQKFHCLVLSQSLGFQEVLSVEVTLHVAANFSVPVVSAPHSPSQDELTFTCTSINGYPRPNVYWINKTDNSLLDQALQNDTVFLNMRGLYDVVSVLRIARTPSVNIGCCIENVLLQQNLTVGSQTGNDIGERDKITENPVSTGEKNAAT
# Biological target: T1, wild type human ICOSL-Fc fusion protein
# Assay: BLI; ForteBio Octet QKe; receptor-Fc loaded on the sensor (Protein A sensors in the methods, anti-human capture AHC sensors in the table's footnote); ICOSL-Fc proteins in four-point titrations (100, 50, 25, 12.5 nM); global 1:1 fit; both partners Fc dimers, KD includes avidity
# Conditions: both partners purified
binder,measurement,value
"human recombinant ICOS-Fc fusion protein (Fc fusion, UniProt Q9Y6W8 21-140, looked up, Inducible Costimulator (ICOS), human, soluble Fc fusion; also called soluble ICOS-Fc; source: bought: R&D Systems) EINGSANYEMFIFHNGGVQILCKYPDIVQQFKMQLLKGGQILCDLTKTKGSGNTVSIKSLKFCHSQLSNNSVSFFLYNLDHSHANYYFCNLSIFDPPPFKVTLTGGYLHIYESQLCCQLK",Kd,0.883 nM
